In article PMC5490261, “The structural and functional characterization of human RecQ4 reveals insights into its helicase mechanism”:

Legend:
Settings in all cases: protein: recombinant; tags: Trx-His6 removed by 3C protease; label: 5' Cy3
[1] = molecular target: T1, RecQ4 427-1208 del944-1032 (Homo sapiens, UniProt O94761 427-943+=GG+1032-1208, internal_change); experiment: fluorescence polarization; WT-like, low nM apparent Kd; 20 mM HEPES pH 8.0, 10 mM NaCl, 5% glycerol, 1 mM MgCl2, 0.5 mM TCEP, 0.5 nM Cy3-ssDNA; temperature not stated
T1 sequence: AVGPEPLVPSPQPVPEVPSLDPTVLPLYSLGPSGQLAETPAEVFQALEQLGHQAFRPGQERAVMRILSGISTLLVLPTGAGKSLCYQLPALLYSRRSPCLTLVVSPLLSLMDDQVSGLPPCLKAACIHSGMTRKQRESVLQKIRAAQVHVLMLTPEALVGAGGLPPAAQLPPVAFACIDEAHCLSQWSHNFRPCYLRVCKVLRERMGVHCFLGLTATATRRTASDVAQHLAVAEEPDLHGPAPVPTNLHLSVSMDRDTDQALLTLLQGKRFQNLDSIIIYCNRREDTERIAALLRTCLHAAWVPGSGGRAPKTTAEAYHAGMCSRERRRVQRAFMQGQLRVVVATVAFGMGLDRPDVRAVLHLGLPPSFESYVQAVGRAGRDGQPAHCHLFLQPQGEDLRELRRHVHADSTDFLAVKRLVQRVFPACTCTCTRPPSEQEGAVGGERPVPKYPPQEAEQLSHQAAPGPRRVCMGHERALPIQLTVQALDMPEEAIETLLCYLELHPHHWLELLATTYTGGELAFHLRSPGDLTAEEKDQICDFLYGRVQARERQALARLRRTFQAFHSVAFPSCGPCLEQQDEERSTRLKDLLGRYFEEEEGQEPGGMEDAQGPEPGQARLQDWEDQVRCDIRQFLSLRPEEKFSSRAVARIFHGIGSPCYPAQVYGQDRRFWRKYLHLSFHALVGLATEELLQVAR

RecQ4 427-1116 = molecular target: T2, RecQ4 427-1116 (Homo sapiens, UniProt O94761 427-1116); experiment: fluorescence polarization; apparent Kd; 20 mM HEPES pH 8.0, 10 mM NaCl, 5% glycerol, 1 mM MgCl2, 0.5 mM TCEP, 0.5 nM Cy3-ssDNA; temperature not stated
T2 sequence: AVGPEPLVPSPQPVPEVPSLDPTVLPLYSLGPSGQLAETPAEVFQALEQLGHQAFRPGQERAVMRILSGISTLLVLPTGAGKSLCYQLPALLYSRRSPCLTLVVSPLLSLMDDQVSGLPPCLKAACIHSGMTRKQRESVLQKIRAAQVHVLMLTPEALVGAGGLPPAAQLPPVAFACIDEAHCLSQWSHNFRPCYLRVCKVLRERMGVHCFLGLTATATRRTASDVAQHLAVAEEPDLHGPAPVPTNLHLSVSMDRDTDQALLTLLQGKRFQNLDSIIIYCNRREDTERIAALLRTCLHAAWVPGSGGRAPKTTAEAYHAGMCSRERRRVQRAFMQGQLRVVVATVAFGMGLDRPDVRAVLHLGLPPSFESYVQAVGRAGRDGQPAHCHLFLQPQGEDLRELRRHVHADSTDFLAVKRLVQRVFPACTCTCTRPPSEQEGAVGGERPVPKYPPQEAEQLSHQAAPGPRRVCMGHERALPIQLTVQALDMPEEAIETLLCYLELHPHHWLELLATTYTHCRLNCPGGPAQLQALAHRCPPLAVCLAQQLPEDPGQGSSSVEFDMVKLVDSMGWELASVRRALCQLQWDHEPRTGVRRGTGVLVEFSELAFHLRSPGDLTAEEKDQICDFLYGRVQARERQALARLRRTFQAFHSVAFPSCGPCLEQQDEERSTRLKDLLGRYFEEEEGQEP

RecQ4 427-1208 WT = molecular target: T3, RecQ4 427-1208 WT (Homo sapiens, UniProt O94761 427-1208); experiment: as above
T3 sequence: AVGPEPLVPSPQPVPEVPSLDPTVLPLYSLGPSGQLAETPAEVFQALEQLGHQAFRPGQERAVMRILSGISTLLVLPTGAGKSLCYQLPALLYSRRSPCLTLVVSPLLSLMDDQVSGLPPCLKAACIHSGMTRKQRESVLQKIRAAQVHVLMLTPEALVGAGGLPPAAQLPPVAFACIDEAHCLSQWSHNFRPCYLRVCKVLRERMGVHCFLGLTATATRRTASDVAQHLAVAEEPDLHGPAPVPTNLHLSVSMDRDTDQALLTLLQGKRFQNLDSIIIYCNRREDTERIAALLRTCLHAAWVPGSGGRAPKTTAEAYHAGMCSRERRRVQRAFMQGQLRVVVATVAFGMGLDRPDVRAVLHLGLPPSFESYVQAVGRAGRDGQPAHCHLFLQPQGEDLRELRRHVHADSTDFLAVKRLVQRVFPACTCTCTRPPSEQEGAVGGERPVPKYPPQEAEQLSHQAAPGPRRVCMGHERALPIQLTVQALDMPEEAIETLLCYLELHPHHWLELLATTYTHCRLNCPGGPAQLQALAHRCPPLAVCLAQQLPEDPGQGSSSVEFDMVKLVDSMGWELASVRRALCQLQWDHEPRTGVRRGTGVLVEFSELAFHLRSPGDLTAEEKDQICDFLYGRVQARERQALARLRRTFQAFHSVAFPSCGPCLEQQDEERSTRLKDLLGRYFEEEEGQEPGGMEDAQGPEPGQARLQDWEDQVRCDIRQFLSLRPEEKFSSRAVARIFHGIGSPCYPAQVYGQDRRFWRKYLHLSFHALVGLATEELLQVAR

B1: T3-Cy3 (ssDNA)
DNA: CCATTCCACCCTCTATTTTTTTTTTTTTTT
- binding result [1]: binds
- Kd (RecQ4 427-1116): 0.0181 ± 0.0008 µM
- Kd (RecQ4 427-1208 WT): 0.0046 ± 0.0004 µM
